Values of other authors, collected in article PMC12135873.

Target: Cys106 (UniProt position 106, LIAAICAGPTA)

DJ-1 (PARK7, Parkinson disease protein 7) (Homo sapiens)
pKa: 5.4
